In patent US9056102B2, “VEGF-activated trail ligands” (The Regents of the University of California, priority 2005, dated 2015):
“Also recorded” adds a separate entry of the source.

Legend:
[1] = tested on: U87MG human glioblastoma cells; assay: Potentiation of R2FasL by chemotherapeutic agents, resazurin cell viability assay; format: cell-based; conditions: 72 hours drug (Bis VIII 1 μM, camptothecin 20 nM, etoposide 5 μM), then R2FasL 10 μL/well for 40 hours
Procedure: U87MG human glioblastoma cells were plated in 96-well plates in 100 μL of complete medium with 10% fetal calf serum at 25,000 cells/well. Forty-eight hours later cells were treated with either bisindolylmaleimide VIII (Bis VIII, final concentration 1 μM), camptothecin (final concentration 20 nM), etoposide (final concentration 5 μM), or DMSO vehicle (1 μL/well). Bis VIII, camptothecin, and etoposide (all from Biomol) were dissolved in DMSO and added at 1 μL/well. After 72 hours of drug exposure, cells were treated with FLAG antibody affinity-purified R2FasL solution (10 μL/well), and incubated for an additional 40 hours. Cell viability and cytotoxicity were assayed using the resazurin assay and the LDG release assay, respectively, as described above.

[2] = tested on: Jurkat cells; assay: Jurkat cell killing, viable cell counting after trypan blue staining; format: cell-based, human
Procedure: (§1) Apoptosis and cytotoxicity was assayed by three assays: cell counting, FACS analysis of Annexin V positive cells, and LDH (lactate dehydrogenase) release. For cell counting of Jurkat cells, 100 uL of cell suspension was mixed with an equal volume of Trypan blue stain (0.4%), and kept at room temperature for 2 minutes. Live cells were counted using a hemocytometer in triplicate. Mean number of cells/visual field and SEM were calculated using InStat statistical software. For FACS analysis, the Annexin-V-Fluos kit from Roche was used according to the manufacturer's protocol. […] The percent of the cell population that was apototic (Annexin-V-positive and propidium iodide-negative) was determined. […] 25 μL of supernatant in triplicate was mixed with LDH detection reagent, and LDH activity quantified by measuring absorbance at 492 nm. Mean and SEM was calculated using InStat statistical software.
Jurkat cells were plated in 24-well plates (500,000 cells in 500 μl/well) and were treated with increasing volumes of conditioned medium obtained from Cos-7 cells transfected either with either control plasmid pSV/Neo or plasmid pBJ/FlkFasL. […] Thirty-two hours later viable cells were counted after trypan blue staining. […]

[3] = tested on: Jurkat cells; assay: Induction of apoptosis by FACS analysis of Annexin V-positive/propidium iodide-negative cells; format: cell-based, human
Procedure: as §1
Jurkat cells were plated in 24-well plates (500,000 cells in 500 μl/well) and were treated with either 1 μL/well or 5 μL/well of conditioned medium obtained from Cos-7 cells transfected either with control plasmid pSV/Neo or plasmid pBJ/FlkFasL. […] Induction of apoptosis was assessed by FACS analysis of FITC-Annexin V-positive/propidium-iodide negative cells.

[4] = tested on: T-47D human breast cancer cells; assay: Cell death in breast cancer cells, photographed 24 hours after treatment; format: cell-based; conditions: 25 μL conditioned medium plus 2 nM VEGF-165, 24 hours
Procedure: T-47D human breast cancer cells were plated in 24-well plates (500,000 cells in 500 μl/well) and grown to confluence. Cells were treated with 25 μL/well of conditioned medium from Cos-7 cells transfected either with control plasmid pSV/Neo or plasmid FlkFasL. Cells were also treated with 2 nM VEGF-165 or without. Cells were photographed 24 hours after treatment.

[5] = tested on: T-47D human breast cancer cells; assay: LDH release cytotoxicity assay in breast cancer cells; format: cell-based
Procedure: Apoptosis and cytotoxicity was assayed by three assays: cell counting, FACS analysis of Annexin V positive cells, and LDH (lactate dehydrogenase) release. For cell counting of Jurkat cells, 100 uL of cell suspension was mixed with an equal volume of Trypan blue stain (0.4%), and kept at room temperature for 2 minutes. Live cells were counted using a hemocytometer in triplicate. Mean number of cells/visual field and SEM were calculated using InStat statistical software. For FACS analysis, the Annexin-V-Fluos kit from Roche was used according to the manufacturer's protocol. Briefly, after treatment with FlkFasL or control conditioned medium±VEGF-165 (2 nM, from Peprotech), Jurkat cells were pelleted and resuspended in 100 μL of Annexin-V-Fluos labeling solution (FITC-Annexin V plus propidium iodide) for 15 minutes at room temperature. FACS analysis was performed on a Becton Dickinson FACSCalibur™ using CellQuest Software, with gating to distinguish Annexin V-positive (apoptotic) versus negative cells, and propidium iodide-positive (i.e. necrotic) versus negative cells. The percent of the cell population that was apototic (Annexin-V-positive and propidium iodide-negative) was determined. […] 25 μL of supernatant in triplicate was mixed with LDH detection reagent, and LDH activity quantified by measuring absorbance at 492 nm. Mean and SEM was calculated using InStat statistical software. […]

[6] = tested on: Jurkat E6.1 human T cells; assay: Jurkat cell viability, resazurin (AlamarBlue) assay; format: cell-based
Procedure: Conditioned medium (0.001, 0.01, 0.1, 1, or 10 μL) from Cos7 cells transfected with pFLAG/R1[D2]FasL vector was added in the absence or presence of rhVEGF-165 (final concentration 2 nM). Twenty-two hours later cell viability was assayed using the resazurin assay (AlamarBlue reagent from BioSource). Conversion of AlamarBlue substrate to product by viable cells was determined by adding 20 μL of AlamarBlue to each well and measuring absorbance at 540 nm and […]. Calculation of % conversion of substrate to product was performed according to the manufacturer's protocol.
To investigate which growth factors activate R1[D2]FasL the following experiment was performed. […] All growth factors were used at a final concentration of 10 nM, and were from Peprotech or R&D Systems. Nineteen hours later cell viability was assayed using the resazurin assay as described above.
In a similar experiment, the concentration of the growth factors tested was varied. […] Conditioned medium from Cos7 cells transfected with either pFLAG/R2FasL vector or empty pFLAG vector was added (1 μL/well), in the absence or presence of rhVEGF-165 or rmVEGF-165 at the final concentrations of 0.001, 0.01, 0.1, 1, and 10 nM. Eighteen hours later cell viability was assayed using the resazurin assay as described herein.
To determine the ED50 for hVEGF-165 on R1[D2]FasL the following experiment was performed. […] Conditioned medium from Cos7 cells transfected with pFLAG/R1[D2]FasL vector was added (2 μL/well), in the absence or presence of rhVEGF-165 at 0, 0.01, 0.1, 1, 10, 100, 1,000, or 10,000 nM. Nineteen hours later cell viability was assayed using the resazurin assay as described above.
In a similar experiment the ED50 for hVEGF-165 on R2FasL was determined. […] Conditioned medium from Cos7 cells transfected with pFLAG/R2FasL vector was added in the volumes indicated, in the absence or presence of rhVEGF-165 at the final concentrations of […], 0.2 and 2 nM. Eighteen hours later cell viability was assayed using the resazurin assay. The ED50 for rhVEGF-165 was between 20 pM and 200 pM (FIG. 21B).

Molecule: Cn1cc(C2=C(c3cn(CCCN)c4ccccc34)C(=O)NC2=O)c2ccccc21 [BisVIII, bisindolylmaleimide VIII]
- potentiation of R2FasL apoptotic activity (cell viability) [1]: Potentiation of R2FasL apoptotic activity

Molecule: COc1cc([C@@H]2c3cc4c(cc3[C@@H](O[C@@H]3O[C@@H]5CO[C@@H](C)O[C@H]5[C@H](O)[C@H]3O)[C@H]3COC(=O)[C@H]23)OCO4)cc(OC)c1O [etoposide]
- potentiation of R2FasL apoptotic activity (cell viability) [1]: Potentiation of R2FasL apoptotic activity

B1: FlkFasL: Fusion of mouse Flk-1 (VEGFR-2) signal sequence and Ig-like domains 1-3, linker, human FasL amino acids 139-281; SEQ ID NO:22 (protein)
chain: MESKALLAVALWFCVETRAASVGLPGDFLHPPKLSTQKDILTILANTTLQITCRGQRDLDWLWPNAQRDSEERVLVTECGGGDSIFCKTLTIPRVVGNDTGAYKCSYRDVDIASTVYVYVRDYRSPFIASVSDQHGIVYITENKNKTVVIPCRGSISNLNVSLCARYPEKRFVPDGNRISWDSEIGFTLPSYMISYAGMVFCEAKINDETYQSIMYIVVVVGYRIYDVILSPPHEIELSAGEKLVLNCTARTELNVGLDFTWHSPPSKSHHKKIVNRDVKPFPGTVAKMFLSTLTIESVTKSDQGEYTCVASSGRMIKRNRTFVRVHTKPFIAFGSARGTSEKKELRKVAHLTGKSNSRSMPLEWEDTYGIVLLSGVKYKKGGLVINETGLYFVYSKVYFRGQSCNNLPLSHKVYMRNSKYPQDLVMMEGKMMSYCTTGQMWARSSYLGAVFNLTSADHLYVNVSELSLVNFEESQTFFGLYKL
- killing of Jurkat cells as function of VEGF amount ([2]; 25 μL/well conditioned medium, varying amounts of VEGF-165, 24 hours): dependent on the amount of VEGF
- killing of Jurkat cells (viable cells per hemocytometer field) ([2]; increasing volumes of Cos-7 conditioned medium, with or without 2 nM VEGF-165, 32 hours): killing of Jurkat cells by FlkFasL in a VEGF-dependent manner
- induction of apoptosis (Annexin V-positive/propidium iodide-negative cells) ([3]; 1 or 5 μL conditioned medium, with or without 2 nM VEGF-165, 60 minutes): induction of apoptosis by FlkFasL in a VEGF-dependent manner
- induction of apoptosis in the absence of VEGF ([3]; conditioned medium in the absence of VEGF): did not increase apoptotic induction
- cell death with exogenous VEGF [4]: drastic increase in cell death; also recorded: drastically increased cell death
- cytotoxicity (LDH release) with exogenous VEGF ([5]; 25 μL conditioned medium plus 2 nM VEGF-165, 48 hours): drastic increase in cytotoxicity
- cytotoxicity (LDH release), endogenous VEGF only ([5]; 25 μL conditioned medium, no exogenous VEGF, 48 hours): induced cytotoxicity

B2: R1[D2]FasL: Second domain of human VEGFR1 (amino acids 129 to 230) fused via ARGTS linker to hFasL amino acids 139 to 281 (protein)
chain: MSALLILALVGAAVADYKDDDDKLAAASDTGRPFVEMYSEIPEIIHMTEGRELVIPCRVTSPNITVTLKKFPLDTLIPDGKRIIWDSRKGFIISNATYKEIGLLTCEATVNGHLYKTNYLTHRQTNTIIARGTSEKKELRKVAHLTGKSNSRSMPLEWEDTYGIVLLSGVKYKKGGLVINETGLYFVYSKVYFRGQSCNNLPLSHKVYMRNSKYPQDLVMMEGKMMSYCTTGQMWARSSYLGAVFNLTSADHLYVNVSELSLVNFEESQTFFGLYKL
modifications: FLAG tag, preprotrypsin leader
- induction of apoptosis (cell viability) ([6]; 0.001-10 μL conditioned medium, absence or presence of 2 nM rhVEGF-165, 22 hours): induces apoptosis in a VEGF-dependent manner
- activation by growth factors (cell viability) ([6]; 2 μL/well conditioned medium, rhVEGF-165, rmVEGF-164, rhVEGF-121, rhVEGF-165/rhPlGF-129 heterodimer, rhPlGF-129, each 10 nM, 19 hours): activated by all growth factors tested
